Measured values reported in patent US9144594B2, “Cathepsin L mediated diseases and associated methods and products” (University of Miami, priority 2005, dated 2015).

System: LPS induced mouse proteinuria model
Test: LPS induced mouse proteinuria model, protein in urine (prevention and reversal by dynamin gene delivery)
Type: in vivo
Description: Next, it was examined whether gene transfer of dynR725A and dynL356Q, G358V was able to protect from LPS induced changes of podocyte FP and thus proteinuria (FIGS. 6A-B); (Table 2B). […] Whereas the application of wildtype dynamin was unable to protect from LPS induced podocyte FP effacement (data not shown) and proteinuria (0.63 mg/ml after 24 hours, p<0.05 and 1.18 mg/ml after 48 hours, p<0.04); table 2B, the co-administration of R725A together with LPS completely abolished the development of proteinuria after 24 hours (0.20 mg/ml). Podocyte FPs remained normal at this timepoint (FIG. 6B). The decline of R725A expression in podocytes was then associated with the development of proteinuria (1.25 mg/ml, 48 h). At this time point, there was noticeable podocyte FP effacement. The application of the cathepsin L resistant dynamin mutant L356Q, G358V together with LPS conferred a partial protection from proteinuria (0.47 mg/ml, P<0.05). This protection was associated with normal appearing podocyte FP (FIG. 6C). Although this protection was not as strong as the one provided by dynR725A, it was prolonged and was still present even after the second dose of LPS ([…], P<0.04). This observation argues that lower expression levels of dynL356Q, G358V are required to protect from LPS induced FP effacement but the presence of dynR725A has the most powerful protection.
Another set of experiments was carried out to study whether dynR725A and dynL356Q, G358V are also useful once there is already established podocyte damage and proteinuria (reversal experiments), (FIGS. 6C, D); (Table 2C). First LPS was injected in mice at 0 and 24 hours and the course of urinary protein loss was documented. On the peak phase of proteinuria at 48 hours after the first LPS injection, either delivery solution (control), dynR725A or dynL356Q, G358V dynamin mutants were transferred and the morphology of podocyte FP was analyzed and the degree of proteinuria was determined 10 hours later when there was strong expression of the transferred gene in podocytes. […] A dramatic reformation of podocyte FPs was also observed (FIG. 6C). The same observation was true for L356Q, G358V (FIG. 6D) which was able to reduce proteinuria from 1.20 mg/ml to 0.71 mg/ml). From the in vitro data it was determined that R725A starts to self assemble into higher order structures in the LPS setting which render dynamin assembly domain protected from cathepsin L cleavage. […] In addition, dominant activating dynR725A proves useful because despite causing podocyte damage in wildtype mice, it can resist cathepsin L cleavage by self assembly in the LPS setting and have strong activity by impairment in its GTP hydrolysis.
If dynamin is a target of CatL, then dynL356Q and dynR725A, which are resistant to CatL cleavage, might protect kidneys from LPS. In control mice, two injections of LPS led to FP effacement (FIG. 21C) and a large increase in proteinuria (FIG. 21E, Con).
Next it was examined whether dynL356Q and dynR725A can reverse already established proteinuria. LPS was injected into mice at 0 and 24 hours. At the peak of proteinuria at 48 hours, mice were injected with dynWT, dynL356Q, or dynR725A, and the degree of proteinuria was analyzed 12 hours post injection. […] The rescue could be achieved with both podocin and CMV-driven protein expression.
All animal studies were approved by the MGH Subcommittee for Research Animal Care. C57BL6 mice were obtained from Jackson Laboratory (Bar Harbor, Me.). CatL−/− mice are in a pure C57BL6 background (Nakagawa et al., Science 280, 450-453 (1998)). LPS induced mouse proteinuria model was utilized as previously described (Reiser et al., J Clin Invest 113, 1390-1397 (2004)). Rat PAN nephrosis model was induced by a single intravenous injection of PAN (180 mg/kg body wt; Sigma-Aldrich, St. Louis, Mo.) (Kim et al., Am J Physiol Renal Physiol 286, F922-935 (2004)). […]

[1] = Table 2B Prevention, 2xLPS, t = 0
[2] = Table 2B Prevention, 2xLPS, t = 10 h
[3] = Table 2C Reversal, LPS at 0 and 24 h, t = 0
[4] = gene delivery immediately before LPS injection
[5] = injected at 48 hours, analyzed 12 hours post injection

Molecule: dynWT: wild type dynamin overexpressed by adenovirus or delivered as dynamin 1 cDNA
- Protein in the urine [1]: 0.28 ± 0.07 mg/mL
- Protein in the urine [2]: 0.27 ± 0.07 mg/mL
- Protein in the urine (Table 2B Prevention, 2xLPS, t = 24 h, listed as Dyn WT): 0.63 ± 0.12 mg/mL
- Protein in the urine (Table 2B Prevention, 2xLPS, t = 24 h, listed as wildtype dynamin): 0.63 mg/mL
- Protein in the urine (Table 2B Prevention, 2xLPS, t = 48 h, listed as Dyn WT): 1.18 ± 0.23 mg/mL
- Protein in the urine (Table 2B Prevention, 2xLPS, t = 48 h, listed as wildtype dynamin): 1.18 mg/mL
- Protein in the urine [3]: 0.30 ± 0.10 mg/mL
- Protein in the urine (Table 2C Reversal, t = 48 h, at gene transfer, listed as Dyn WT): 1.17 ± 0.18 mg/mL
- Protein in the urine (Table 2C Reversal, t = 48 h, at gene transfer, listed as wildtype dynamin): 1.26 mg/mL
- Protein in the urine (Table 2C Reversal, t = 58 h, 10 hours after gene transfer, listed as Dyn WT): 1.10 ± 0.17 mg/mL
- Protein in the urine (Table 2C Reversal, t = 58 h, 10 hours after gene transfer, listed as wildtype dynamin): 1.32 mg/mL
- protection from LPS-induced proteinuria, in words [4]: did not protect against these changes
- reversal of established proteinuria, in words [5]: did not reduce proteinuria

B1: dynR725A: dynamin mutant (SEQ ID NO.4) with impaired GTP hydrolysis capacity (protein, listed as Homo sapiens)
chain: MGNRGMEDLIPLVNRLQDAFSAIGQNADLDLPQIAVVGGQSAGKSSVLENFVGRDFLPRGSGIVTRRPLVLQLVNATTEYAEFLHCKGKKFTDFEEVRLEIEAETDRVTGTNKGISPVPINLRVYSPHVLNLTLVDLPGMTKVPVGDQPPDIEFQIRDMLMQFVTKENCLILAVSPANSDLANSDALKVAKEVDPQGQRTIGVITKLDLMDEGTDARDVLENKLLPLRRGYIGVVNRSQKDIDGKKDITAALAAERKFFLSHPSYRHLADRMGTPYLQKVLNQQLTNHIRDTLPGLRNKLQSQLLSIEKEVEEYKNFRPDDPARKTKALLQMVQQFAVDFEKRIEGSGDQIDTYELSGGARINRIFHERFPFELVKMEFDEKELRREISYAIKNIHGIRTGLFTPDMAFETIVKKQVKKIREPCLKCVDMVISELISTVRQCTKKLQQYPRLREEMERIVTTHIREREGRTKEQVMLLIDIELAYMNTNHEDFIGFANAQQRSNQMNKKKTSGNQDEILVIRKGWLTINNIGIMKGGSKEYWFVLTAENLSWYKDDEEKEKKYMLSVDNLKLRDVEKGFMSSKHIFALFNTEQRNVYKDYRQLELACETQEEVDSWKASFLRAGVYPERVGDKEKASETEENGSDSFMHSMDPQLERQVETIRNLVDSYMAIVNKTVRDLMPKTIMHLMINNTKEFIFSELLANLYSCGDQNTLMEESAEQAQRADEMLRMYHALKEALSIIGDINTTTVSTPMPPPVDDSWLQVQSVPAGRRSPTSSPTPQRRAPAVPPARPGSRGPAPGPPPAGSALGGAPPVPSRPGASPDPFGPPPQVPSRPNRAPPGVPSRSGQASPSRPESPRPPFDL
- Protein in the urine [1]: 0.17 ± 0.07 mg/mL
- Protein in the urine [2]: 0.23 ± 0.07 mg/mL
- Protein in the urine (Table 2B Prevention, 2xLPS, t = 24 h): 0.20 mg/mL
- Protein in the urine (Table 2B Prevention, 2xLPS, t = 48 h, listed as Dyn R725A): 1.25 ± 0.26 mg/mL
- Protein in the urine (Table 2B Prevention, 2xLPS, t = 48 h, listed as R725A): 1.25 mg/mL
- Protein in the urine [3]: 0.28 ± 0.08 mg/mL
- Protein in the urine (Table 2C Reversal, t = 48 h, at gene transfer): 1.15 mg/mL
- Protein in the urine (Table 2C Reversal, t = 48 h, at gene transfer, listed as Dyn R725A): 1.15 ± 0.15 mg/mL
- Protein in the urine (Table 2C Reversal, t = 58 h, 10 hours after gene transfer): 0.38 mg/mL
- Protein in the urine (Table 2C Reversal, t = 58 h, 10 hours after gene transfer, listed as Dyn R725A): 0.38 ± 0.20 mg/mL
- protection from LPS-induced proteinuria, in words [4]: completely inhibited development of proteinuria after 24 hours
- reversal of established proteinuria, in words [5]: almost complete reversal of proteinuria

B2: dynL356Q, G358V: dynamin mutant (SEQ ID NO.3) not recognized by cathepsin L; ELSGGA mutated to EQSVGA (protein, listed as Homo sapiens)
chain: MGNRGMEDLIPLVNRLQDAFSAIGQNADLDLPQIAVVGGQSAGKSSVLENFVGRDFLPRGSGIVTRRPLVLQLVNATTEYAEFLHCKGKKFTDFEEVRLEIEAETDRVTGTNKGISPVPINLRVYSPHVLNLTLVDLPGMTKVPVGDQPPDIEFQIRDMLMQFVTKENCLILAVSPANSDLANSDALKVAKEVDPQGQRTIGVITKLDLMDEGTDARDVLENKLLPLRRGYIGVVNRSQKDIDGKKDITAALAAERKFFLSHPSYRHLADRMGTPYLQKVLNQQLTNHIRDTLPGLRNKLQSQLLSIEKEVEEYKNFRPDDPARKTKALLQMVQQFAVDFEKRIEGSGDQIDTYEQSVGARINRIFHERFPFELVKMEFDEKELRREISYAIKNIHGIRTGLFTPDMAFETIVKKQVKKIREPCLKCVDMVISELISTVRQCTKKLQQYPRLREEMERIVTTHIREREGRTKEQVMLLIDIELAYMNTNHEDFIGFANAQQRSNQMNKKKTSGNQDEILVIRKGWLTINNIGIMKGGSKEYWFVLTAENLSWYKDDEEKEKKYMLSVDNLKLRDVEKGFMSSKHIFALFNTEQRNVYKDYRQLELACETQEEVDSWKASFLRAGVYPERVGDKEKASETEENGSDSFMHSMDPQLERQVETIRNLVDSYMAIVNKTVRDLMPKTIMHLMINNTKEFIFSELLANLYSCGDQNTLMEESAEQAQRRDEMLRMYHALKEALSIIGDINTTTVSTPMPPPVDDSWLQVQSVPAGRRSPTSSPTPQRRAPAVPPARPGSRGPAPGPPPAGSALGGAPPVPSRPGASPDPFGPPPQVPSRPNRAPPGVPSRSGQASPSRPESPRPPFDL
- Protein in the urine [1]: 0.21 ± 0.05 mg/mL
- Protein in the urine [2]: 0.26 ± 0.05 mg/mL
- Protein in the urine (Table 2B Prevention, 2xLPS, t = 24 h, listed as Dyn L356Q, G358V): 0.47 ± 0.17 mg/mL
- Protein in the urine (Table 2B Prevention, 2xLPS, t = 24 h, listed as L356Q, G358V): 0.47 mg/mL
- Protein in the urine (Table 2B Prevention, 2xLPS, t = 48 h): 0.65 ± 0.10 mg/mL
- Protein in the urine [3]: 0.18 ± 0.08 mg/mL
- Protein in the urine (Table 2C Reversal, t = 48 h, at gene transfer, listed as Dyn L356Q, G358V): 1.20 ± 0.27 mg/mL
- Protein in the urine (Table 2C Reversal, t = 48 h, at gene transfer, listed as L356Q, G358V): 1.20 mg/mL
- Protein in the urine (Table 2C Reversal, t = 58 h, 10 hours after gene transfer, listed as Dyn L356Q, G358V): 0.71 ± 0.09 mg/mL
- Protein in the urine (Table 2C Reversal, t = 58 h, 10 hours after gene transfer, listed as L356Q, G358V): 0.71 mg/mL
- reduction of proteinuria [4]: ~50%
- proteinuria (prevention, after the second dose of LPS): 0.65 mg/dL
- reduction of proteinuria (reversal, injected at 48 hours, analyzed 12 hours post injection): ~50%
